# System: p54 SAPKβ (JNK3) fused to the WIN-ZIP B1 leucine zipper and Myc tag
row,Substance,tyrosine phosphorylation of p54 (anti-Myc immunoprecipitates probed with anti-PTyr)
1,v-Src fused at the N-terminus with HA tag alone,p54 is phosphorylated on tyrosine only when the WIN-ZIP A1-Src fusion is present (so not with v-Src carrying the HA tag alone)
2,v-Src fused at the N-terminus with HA tag plus WIN-ZIP A1 leucine zipper,p54 is phosphorylated on tyrosine only when the WIN-ZIP A1-Src fusion is present
